Measured values reported in PMC10506485, “Human astrovirus capsid protein releases a membrane lytic peptide upon trypsin maturation” (Journal of Virology, 2023).

Target: the molecule itself
Assay: SEC; Superdex-200 or Superdex-75 size exclusion column; 50 mM Tris-HCl pH 8.0, 150 mM NaCl, 1 mM NaN3; self-association judged from the elution profile

Protein | binding result | stoichiometry N
HAstV8 VP90^14-782 (domain or fragment, Capsid polyprotein precursor VP90 of human astrovirus serotype 8 (strain Yuc8), residues 14-782, N-terminal truncation; The results name the vector pET28a, the methods pET-SUMOc with an N-terminal 6xHis-SUMO tag; also called aa14–782; source: E. coli (Rosetta 2 (DE3) or BL21), purified (HisTrap, Superdex size exclusion)) NNNGRSRSKSRARSQSRGRGRSVKITVNSHNKGRRQNGRNKYQSNQRVRKIVNKQLRKQGVTGPKPAICQTATATLGTIGSNTTGATEIEACILLNPVLVKDATGSTQFGPVQALGAQYSMWKLKYLNVRLTSMVGASAVNGTVVRISLNPTSTPSSTSWSGLGARKHLDVTVGKNAVFKLKPSDLGGPRDGWWLTNTNDNASDTLGPSIEIHTLGQTMSSYQNTQFTGGLFLVELSSAWCFTGYAANPNLVNLVKSTDKSVNVTFEGSAGTPLIMNVPEHSHFARTAVEHSSLSTSLSRAGGESSSDTVWQVLNTAVSAAELVTPPPFNWLVKGGWWFVKLIAGRARTGARRFYVYLSYQDALSNKPALCTGGVPASARQSNPVRTTLQFTQMNQPSLGHGATPMTFGRSIPEPGEQFRVLLTVGPPMAPNTANSQNWVNKTIVPPENQYTVKIGIDLEHYTTMQGFTPVESVSWYTADFQPSDEPSPIPGLYARVNNTKKADVYGVQQFKSSHTNNRHQITSVFLVRVTTSFQVINYTSYFIRGAESGSNVSNLKIRDQTYHTPLQFTQGKWYLLTSTVMHDGPTSSGWVWMNQELTNNIAYRVDPGMMYLITPPPAASQLYFELHTVLPQARSEEPETYVDAPLPEEPPIEEEETDSDFESTEDENDEVDRFDLHPSSESDDDDVENDRATLLSTLLNQGISVERATRITNGAFPTRAARVRRSVYNDLLVSGLSPGAAWSHACEQARRAGDNHDLQLSGSRDHAE | binds | 
HAstV8 VP90^72-782 (domain or fragment, Capsid polyprotein precursor VP90 of human astrovirus serotype 8 (strain Yuc8), residues 72-782, N-terminal truncation; The results name the vector pET28a, the methods pET-SUMOc with an N-terminal 6xHis-SUMO tag; also called aa72–782; source: E. coli (Rosetta 2 (DE3) or BL21), purified (HisTrap, Superdex size exclusion)) QGVTGPKPAICQTATATLGTIGSNTTGATEIEACILLNPVLVKDATGSTQFGPVQALGAQYSMWKLKYLNVRLTSMVGASAVNGTVVRISLNPTSTPSSTSWSGLGARKHLDVTVGKNAVFKLKPSDLGGPRDGWWLTNTNDNASDTLGPSIEIHTLGQTMSSYQNTQFTGGLFLVELSSAWCFTGYAANPNLVNLVKSTDKSVNVTFEGSAGTPLIMNVPEHSHFARTAVEHSSLSTSLSRAGGESSSDTVWQVLNTAVSAAELVTPPPFNWLVKGGWWFVKLIAGRARTGARRFYVYLSYQDALSNKPALCTGGVPASARQSNPVRTTLQFTQMNQPSLGHGATPMTFGRSIPEPGEQFRVLLTVGPPMAPNTANSQNWVNKTIVPPENQYTVKIGIDLEHYTTMQGFTPVESVSWYTADFQPSDEPSPIPGLYARVNNTKKADVYGVQQFKSSHTNNRHQITSVFLVRVTTSFQVINYTSYFIRGAESGSNVSNLKIRDQTYHTPLQFTQGKWYLLTSTVMHDGPTSSGWVWMNQELTNNIAYRVDPGMMYLITPPPAASQLYFELHTVLPQARSEEPETYVDAPLPEEPPIEEEETDSDFESTEDENDEVDRFDLHPSSESDDDDVENDRATLLSTLLNQGISVERATRITNGAFPTRAARVRRSVYNDLLVSGLSPGAAWSHACEQARRAGDNHDLQLSGSRDHAE |  | 2
HAstV8 VP90^28-782 (domain or fragment, Capsid polyprotein precursor VP90 of human astrovirus serotype 8 (strain Yuc8), residues 28-782, N-terminal truncation; The results name the vector pET28a, the methods pET-SUMOc with an N-terminal 6xHis-SUMO tag; Forms rod-shaped assemblies of about 20 nm diameter and variable length; also called aa28–782; source: E. coli (Rosetta 2 (DE3) or BL21), purified (HisTrap, Superdex-200 size exclusion)) QSRGRGRSVKITVNSHNKGRRQNGRNKYQSNQRVRKIVNKQLRKQGVTGPKPAICQTATATLGTIGSNTTGATEIEACILLNPVLVKDATGSTQFGPVQALGAQYSMWKLKYLNVRLTSMVGASAVNGTVVRISLNPTSTPSSTSWSGLGARKHLDVTVGKNAVFKLKPSDLGGPRDGWWLTNTNDNASDTLGPSIEIHTLGQTMSSYQNTQFTGGLFLVELSSAWCFTGYAANPNLVNLVKSTDKSVNVTFEGSAGTPLIMNVPEHSHFARTAVEHSSLSTSLSRAGGESSSDTVWQVLNTAVSAAELVTPPPFNWLVKGGWWFVKLIAGRARTGARRFYVYLSYQDALSNKPALCTGGVPASARQSNPVRTTLQFTQMNQPSLGHGATPMTFGRSIPEPGEQFRVLLTVGPPMAPNTANSQNWVNKTIVPPENQYTVKIGIDLEHYTTMQGFTPVESVSWYTADFQPSDEPSPIPGLYARVNNTKKADVYGVQQFKSSHTNNRHQITSVFLVRVTTSFQVINYTSYFIRGAESGSNVSNLKIRDQTYHTPLQFTQGKWYLLTSTVMHDGPTSSGWVWMNQELTNNIAYRVDPGMMYLITPPPAASQLYFELHTVLPQARSEEPETYVDAPLPEEPPIEEEETDSDFESTEDENDEVDRFDLHPSSESDDDDVENDRATLLSTLLNQGISVERATRITNGAFPTRAARVRRSVYNDLLVSGLSPGAAWSHACEQARRAGDNHDLQLSGSRDHAE | binds | 
